# Data taken from paper PMC4670963.
# Assays:
# Flag-tagged Sufu [1] = biological target: Flag-tagged Sufu (UniProt Q9UMX1); assay: co-IP; NIH3T3 cells transfected with HA-Gli1 or HA-Gli2 and Flag-Sufu, without exogenous Hck; immunoprecipitated with anti-Flag; western blot with anti-HA or anti-Flag; bands quantified with ImageJ against the input
# Flag-tagged Sufu [2] = biological target: Flag-tagged Sufu (UniProt Q9UMX1); assay: co-IP; As a2 but with co-expressed exogenous HA-Hck or kinase-inactive Hck-K269E; immunoprecipitated with anti-Flag; western blot with anti-HA, anti-Flag or 4G10
# UniProt Q9UMX1, sequence (Q9UMX1 whole entry): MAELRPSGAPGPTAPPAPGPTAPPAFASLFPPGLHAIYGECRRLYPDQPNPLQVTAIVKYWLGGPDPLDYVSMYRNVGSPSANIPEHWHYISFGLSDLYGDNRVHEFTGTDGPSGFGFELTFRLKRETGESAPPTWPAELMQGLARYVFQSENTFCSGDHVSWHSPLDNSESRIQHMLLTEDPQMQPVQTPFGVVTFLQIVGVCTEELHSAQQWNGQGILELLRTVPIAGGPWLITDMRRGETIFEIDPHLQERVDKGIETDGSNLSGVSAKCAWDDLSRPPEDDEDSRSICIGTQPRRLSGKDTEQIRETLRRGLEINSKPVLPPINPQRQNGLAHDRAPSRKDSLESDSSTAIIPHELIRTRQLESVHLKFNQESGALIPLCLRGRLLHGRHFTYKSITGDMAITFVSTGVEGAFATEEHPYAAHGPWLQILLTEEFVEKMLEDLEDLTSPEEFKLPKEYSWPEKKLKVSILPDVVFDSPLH
substance,measurement,setting,value
HA-Gli1 (from UniProt P08151 1-1106) (natural protein),percent of Gli1 co-immunoprecipitated with Sufu (against the input),Flag-tagged Sufu [1],30%
same,"percent of Gli1 co-precipitated with Sufu (against the input), with co-expressed HA-Hck",Flag-tagged Sufu [2],5%
